Article PMC8516096

Key:
Settings in all cases: Holoenzyme reconstitution: 200 mM Tris-HCl pH 8.0, 30 mM KCl, 10 mM MgCl2, 50 mM NaCl, 1 mM DTT, 1 mM EDTA, BSA 20 ug/ml, 30 C 45 min; DNA binding: 50 mM …
[1] = biological target: T1, RNAP core enzyme (E, alpha2 beta beta' omega);RpoS (sigmaS, sigma38) (Escherichia coli;Salmonella enterica serovar Typhimurium ATCC 14028?) (UniProt P0A7Z4+P0A8V2+P0A8T7+P0A800+D0ZVL4); assay: EMSA with anti-RpoS immunoblot
[2] = biological target: T2, RNAP core enzyme (E, alpha2 beta beta' omega);RpoS (sigmaS, sigma38);Crl (Escherichia coli;Salmonella enterica serovar Typhimurium ATCC 14028?;Salmonella enterica serovar Typhimurium ATCC 14028?) (UniProt P0A7Z4+P0A8V2+P0A8T7+P0A800+D0ZVL4+Q7CR52); assay: EMSA with anti-RpoS immunoblot
[3] = biological target: T2, RNAP core enzyme (E, alpha2 beta beta' omega);RpoS (sigmaS, sigma38);Crl (Escherichia coli;Salmonella enterica serovar Typhimurium ATCC 14028?;Salmonella enterica serovar Typhimurium ATCC 14028?); assay: competition EMSA with anti-RpoS immunoblot
[4] = biological target: RNAP core enzyme (E, alpha2 beta beta' omega);RpoD (sigmaD, sigma70) (Escherichia coli;Salmonella enterica serovar Typhimurium ATCC 14028?) (UniProt P0A7Z4+P0A8V2+P0A8T7+P0A800+P0A2E3); assay: EMSA
[5] = biological target: T1, RNAP core enzyme (E, alpha2 beta beta' omega);RpoS (sigmaS, sigma38) (Escherichia coli;Salmonella enterica serovar Typhimurium ATCC 14028?); assay: EMSA
[6] = biological target: RNAP core enzyme (E, alpha2 beta beta' omega) (Escherichia coli) (UniProt P0A7Z4+P0A8V2+P0A8T7+P0A800); assay: EMSA

Measured: binding

AGTACATATAGTTTCATCAGAAGATTAATCGATGGTGTTATCATTAGGAAGATAAATTTCTTCATATATAACCCAGTCGATGACTACAATTACTTTTTAATAAGATGGCGATGTAAAAACATCGTAACAGTTTATTTAATAAATAATTTTTCAAATTGTAAGTTTTTATGTC (double strand) [PssrA region]
binds: all assays above
